Results published in publication PMC10928148.

These substances were tested against Delta variant S protein on plant-produced virus-like particles (SARS-CoV-2 (Delta variant)) (UniProt P0DTC2) (assay: ELISA).
Work on “COVA2-15 secretory IgA1 (from UniProt P01591 23-159; P01833 19-764) (antibody)” yielded an EC50 of 0.086 nM. In the case of COVA2-15 IgG (antibody), the EC50 is reported as 9.03 nM. With “COVA2-15 secretory IgA2 (from UniProt P01591 23-159; P01833 19-764) (antibody)” the EC50 was 0.542 nM. COVA2-15 monomeric IgA1 (antibody) gave an EC50 of 1.95 nM. For COVA2-15 monomeric IgA2 (antibody), the EC50 was 2.06 nM.

Molecular target: Delta variant S protein on plant-produced virus-like particles (SARS-CoV-2 (Delta variant)) (UniProt P0DTC2)
Assay: ELISA
Remark: another data set of the same source
Work on COVA2-15 IgG (antibody) yielded an EC50 of 9 nM. For “COVA2-15 secretory IgA1 (from UniProt P01591 23-159; P01833 19-603) (antibody)”, the EC50 was 0.09 nM.
